Laboratory results reported in article PMC11547725, “Cold-Active Lipase from the Ice Cave Psychrobacter SC65A.3 Strain, a Promising Biocatalyst for Silybin Acylation” (Molecules, 2024).

How the values were obtained:
Test in all cases: purified protein
Assay type in all cases: biochemical, Psychrobacter sp. SC65A.3
purified protein [1] = substrate: CCCCCCCCCCCCCCCCCC(=O)Oc1ccc([N+](=O)[O-])cc1; settings: 25 °C
purified protein [2] = substrate: CCCC(=O)Oc1ccc([N+](=O)[O-])cc1; settings: 25 °C, 50 mM Tris HCl pH 7.2, substrate in ethanol
purified protein [3] = substrate: CCCCCCCCCCCCCCCC(=O)Oc1ccc([N+](=O)[O-])cc1; settings: 25 °C, 50 mM Tris HCl pH 7.2

B1: PSL2 (Psychrobacter sp. SC65A.3) (protein)
chain: MSNSTVLSVNTLLNKAVKTLNLMSFGQDKNPKSTDINLSDEIIDIEESALQDSREDKGLSIKEKILEHHLMTNYQPHLLHYAIKSFGCLPTPILESLIKCLDGPTSKQYLHVDAHLRLILAVNSKLKTPLQLIEMSELRKRFATDAVAMQAPKVWQQASDNLLSNLKQFHKKGDSAISWQDRTITNADDGDMTIRCYQNETSDNGFGFKKEQTSNPDETVLLFFHGGGFCIGDLNTHHEFCHAICEQTGWPVISVDYRLAPEHPAPAAVRDCISAYAWLAEHCEEFGALPSRIVLAGDSAGGGLSTLMAQQIITPNKEAWLDLGDEGQKTFDILQGLPHPMAQMPLYPVTDIETDYPSWELYGEGLLLDHADVAIFDAACLENSPLPRQHILTSPMLGDNRQVCPSYVVAAELDVLRDEAFAYANQLKSFGIAVQTHTVLGAPHGFIHFMSVHQRLGQETQHIITGFANFVREIIKTRALLSA
Purified protein [1]; 50 mM Tris HCl pH 7.2
  Km: 3.70 mM
Purified protein [1]; 50 mM Tris HCl pH 7.2, text b41 swaps the kcat of butyrate and stearate, table value taken (fits kcat/Km)
  kcat/Km: 13.9 M⁻¹ s⁻¹
Purified protein [2]
  Km: 2.38 mM
Purified protein [2]; text b41 swaps the kcat of butyrate and stearate, table value taken (fits kcat/Km)
  kcat/Km: 25 M⁻¹ s⁻¹
Purified protein [3]
  Km: 4.30 mM
  kcat/Km: 5.75 M⁻¹ s⁻¹
